These results are taken from patent US11110182B2, “Multifunctional RNA nanoparticles and methods for treating cancer and therapeutic resistant cancer” (University of Cincinnati, priority 2016, dated 2021).

The subject of one data set is BT474 cells. The data set is described as follows: In vitro mammosphere culture assay, BT474 cells. The data set is classed as cell-based, human. How it is done: FIG. 4A) BT474 cells were treated with pRNA nanoparticles in combination with vehicle or 1 μM 4-hydroxy-tamoxifen (4-OHT) as indicated for 48 h, and assayed for cell viability by MTT assay. FIG. 4B) Cells were treated as above and the migration and FIG. 4C) invasion capabilities were examined. FIG. 4D) Cells were treated as above and assayed for in vitro mammosphere formation. FIG. 4E) The number of mammospheres was counted, and FIG. 4F) the mammosphere size was calculated. Scale bar: 10 μm.
Migration and metastasis assay. The 8-μm-pore-size polycarbonate membrane, which separates the two chambers of a 6.5-mm Transwell (Costar), was coated with or without 1:8 DMEM-diluted Matrigel (Corning). Transwell assay was performed as previously described.^57 Briefly, BT474 cells were treated with pRNAs alone or together with 4-hydroxy-tamoxifen (4-OHT) for 48 h and starved with serum-free DMEM containing 0.2% BSA overnight. On the next day, cells were collected and 2×10^5 cells were seeded to the upper chamber of Transwell. The lower chamber was filled with 600 μL DMEM medium containing 10% FBS. After incubation at 37° C. for 24 h, cells on the membranes were fixed and stained with 0.1% crystal violet in 20% ethanol solution. Cells at top side of membranes were removed completely, and cells at the bottom side were examined with an Olympus SZX12 microscope and counted. • Mammosphere culture and breast cancer stem cell analyses. BT474 cells were treated with pRNAs for 48 h. Then, cells were suspended in DMEM/F12 medium supplemented with 1×B27 (Thermo Fisher), 20 ng/mL bFGF and 20 ng/mL EGF (R&D), and added into 24-well ultralow attachment plates. After treatment with or without 1 μM 4-OHT for 7 days, mammosphere formation was recorded using an Axiovert S100 TV inverted microscope (Zeiss). Xenograft tumor tissues were cut into small pieces and digested with trypsin and collagenase at 37° C. for 1 h, and tumor cells were collected and rinsed with pre-cold PBS. All cells were stained with FITC-conjugated anti-CD44 antibody and PE-conjugated anti-CD24 antibody (BD Pharmingen) in the dark on ice for 30 min. After resuspension with 0.5 mL PBS buffer, CD44^+/CD24^−/low cell population was analyzed by flow cytometry. • Orthotopic xenograft breast tumor mouse model, in vivo imaging and anti-tumor therapy. […] The tumor volume was monitored every 3 days, and tumor size was calculated using the formula: volume=0.5×(width)^2×(length). […] After the tumor weights were recorded, part of the tumor tissues were digested with trypsin and collagenase, lysed for extraction of total proteins and RNAs, or fixed in 10% neutral buffered formalin along with organ tissues, respectively, for further western blot, real-time PCR and IHC studies, etc. […]

For a further data set, the system named is MED1. The data set is described as follows: MED1 protein level by western blots in MCF-7/TAM cells. Conditions: 10 μg/mL, 48 h. It counts as cell-based, human. The protocol: FIGS. 10A-10D. Evidence that pRNA-HER2apt-siMED1 nanoparticles silenced MED1 expression and sensitized two other HER2+ breast cancer cells to tamoxifen treatment. FIG. 10A) Two HER2-overexpressing breast cancer cell lines MCF7/TAM and FIG. 10B) MCF7/HER2, were treated with 10 μg/mL pRNA-HER2apt-siMED1 nanoparticles or scramble control for 48 h, and then MED1 protein level was determined using western blots. FIG. 10C) MCF7/TAM and FIG. 10D) MCF7/HER2 cells were treated with 10 μg/mL pRNA nanoparticles and/or 1 μM tamoxifen (TAM) as indicated for 48 h, and then cell growth was determined using an MTT assay.
Next, the ability of pRNA-HER2apt-siMED1 nanoparticles to silence the expression of MED1 in BT474 and MDA-MB-231 human breast cancer cells was examined. Using real-time PCR analyses, a significant depletion of nearly 70% of MED1 mRNA in BT474 cells after pRNA-HER2apt-siMED1 but not pRNA-HER2apt^mut-siMED1 treatment was found (FIG. 3A).
A general note: Immunoblotting shows a protein as a band on a membrane.

[1] abbreviates: BT474, in combination with tamoxifen (1 μM 4-OHT, 7 days).

B1: pRNA-HER2apt-siMED1: 3-WJ pRNA nanoparticle bearing a HER2-targeting RNA aptamer and two different MED1 siRNAs; strands p1 SEQ ID NO: 3, p2 SEQ ID NO: 4 (nucleic acid)
chain 1: GGACAGUGAAAGUGAGUCAAAGGAUCAAUCAUGGCCAAAGAUGUUACUUUGAGAGCCUU
chain 2: GGCUCUCAAAGUAACAUCUAAGGCCAUGUGUAUGUGGGGGGAGGACGAUGCGGUCUGCUGUGCUUGAUAUGCCCCAGACGACUCGCCCCCCACAUACUUUGUUGAUCCAAUGACUCACUUUCACUGUCCUU
modifications: 2'-F modification; third strand may lack entry; pRNA-HER2apt-siMED1, p1; pRNA-HER2apt-siMED1, p2
With B1, the “number of mammosphere formation” value with BT474 cells (setting [1]) is “greatly reduced”; with BT474 cells (BT474, nanoparticles alone), “greatly reduced”. The size of mammospheres result is given as “greatly reduced” with BT474 cells (setting [1]) and “greatly reduced” with BT474 cells (BT474, nanoparticles alone). Also, the MED1 silencing entry in the data set with MED1 is recorded as “confirmed”.
